Among the data in US20190032060 are Kd and EC50 values, retold here.

Data set [1] has as its target T1, Insulin receptor (extracellular domain) (Homo sapiens?) (UniProt P06213+P06213). Briefly: FP. To be noted: 6 Nap-dU stated (n positions) [n positions 3,4,10,14,16,20,24 = modified dU]; filter binding assay in fact (see method p97-p99); 200 mM HEPES, 510 mM NaCl, 25 mM KCl, 25 mM MgCl2, 37 C.
The target of data set [2] is T1, Insulin receptor (extracellular domain). In words: filter. To be noted: 200 mM HEPES, 510 mM NaCl, 25 mM KCl, 25 mM MgCl2, 37 C.
Data set [3] deals with Insulin receptor, endogenous on 3T3-L1 adipocytes (UniProt P15208+P15208). In words: cell_activity. To be noted: 6 Nap-dU (n positions) [n positions 8,10,11,21,23,27 = modified dU]; 2-deoxyglucose uptake, 4 h treatment.
Sequence of Insulin receptor, endogenous on 3T3-L1 adipocytes (P15208 28-748, chain 1 of 2): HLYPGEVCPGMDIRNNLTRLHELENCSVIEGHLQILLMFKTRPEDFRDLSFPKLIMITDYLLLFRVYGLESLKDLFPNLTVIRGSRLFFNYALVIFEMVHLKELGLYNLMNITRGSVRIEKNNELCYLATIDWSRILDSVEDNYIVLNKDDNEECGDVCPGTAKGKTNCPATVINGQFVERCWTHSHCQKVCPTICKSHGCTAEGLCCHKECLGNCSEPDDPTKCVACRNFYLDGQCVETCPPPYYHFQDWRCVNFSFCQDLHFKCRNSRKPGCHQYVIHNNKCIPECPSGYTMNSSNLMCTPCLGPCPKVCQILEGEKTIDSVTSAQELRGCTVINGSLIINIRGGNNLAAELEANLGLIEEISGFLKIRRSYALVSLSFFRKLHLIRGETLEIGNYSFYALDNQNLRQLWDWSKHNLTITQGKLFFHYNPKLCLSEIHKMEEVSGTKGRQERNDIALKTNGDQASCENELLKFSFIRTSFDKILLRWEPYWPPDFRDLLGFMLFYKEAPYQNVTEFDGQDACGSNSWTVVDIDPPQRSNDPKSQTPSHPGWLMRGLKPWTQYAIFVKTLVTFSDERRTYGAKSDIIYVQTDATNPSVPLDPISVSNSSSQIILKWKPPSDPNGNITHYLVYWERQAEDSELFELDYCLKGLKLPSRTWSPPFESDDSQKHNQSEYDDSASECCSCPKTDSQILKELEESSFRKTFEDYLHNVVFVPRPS
Sequence of Insulin receptor, endogenous on 3T3-L1 adipocytes (P15208 753-1372, chain 2 of 2): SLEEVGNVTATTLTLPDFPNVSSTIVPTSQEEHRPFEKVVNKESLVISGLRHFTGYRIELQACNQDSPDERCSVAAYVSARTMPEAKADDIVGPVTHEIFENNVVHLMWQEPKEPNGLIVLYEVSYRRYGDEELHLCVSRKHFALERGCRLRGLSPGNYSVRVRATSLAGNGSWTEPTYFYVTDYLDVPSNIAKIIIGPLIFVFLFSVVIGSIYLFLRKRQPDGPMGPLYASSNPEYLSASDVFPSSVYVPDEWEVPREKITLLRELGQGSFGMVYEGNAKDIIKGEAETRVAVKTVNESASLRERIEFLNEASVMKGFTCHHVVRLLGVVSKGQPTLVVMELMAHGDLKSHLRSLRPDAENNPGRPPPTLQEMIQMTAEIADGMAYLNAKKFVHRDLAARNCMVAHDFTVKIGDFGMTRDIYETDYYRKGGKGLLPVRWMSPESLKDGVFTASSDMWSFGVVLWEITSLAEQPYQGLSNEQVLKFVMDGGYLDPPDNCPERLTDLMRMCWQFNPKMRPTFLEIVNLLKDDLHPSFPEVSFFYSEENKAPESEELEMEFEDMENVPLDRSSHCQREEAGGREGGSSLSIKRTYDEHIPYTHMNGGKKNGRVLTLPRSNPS

CATTACGCATGAGTCTAGATCCGTCAG [IR-A62]: the Kd – broadly, a measure of binding affinity in units of concentration – in data set [1] came to 2.4 nM. This lies in the single-digit nanomolar range. As to “CGCCTGGTGTTAAGACAACCTCTAGGTCAGGCG [IR-A48]”, the Kd in data set [2] (6 Nap-dU (n positions) [n positions 8,10,11,21,23,27 = modified dU]) was found to be 3.5 nM. For the same sequence, the EC50 (as a rule, the concentration at which the effect is half-maximal) in data set [3] amounted to 66.2 nM. As for “TATGAGTGACCGTCCGCCTGGTGTTAAGACAACCTCTAGGTCAGGCGCAGTGACGGGTAGCAGCCACACCACCAGCCAAA [IR-A48F]”, the Kd in data set [2] (8 Nap-dU in the variable region (n positions) [n positions 22,24,25,35,37,41,51,58 = modified dU]) amounted to 6.9 nM. That is a single-digit nanomolar value.
